One test concerns the target T1, mouse LIV-1 (mouse) (UniProt Q8C145).
T1 sequence (looked up): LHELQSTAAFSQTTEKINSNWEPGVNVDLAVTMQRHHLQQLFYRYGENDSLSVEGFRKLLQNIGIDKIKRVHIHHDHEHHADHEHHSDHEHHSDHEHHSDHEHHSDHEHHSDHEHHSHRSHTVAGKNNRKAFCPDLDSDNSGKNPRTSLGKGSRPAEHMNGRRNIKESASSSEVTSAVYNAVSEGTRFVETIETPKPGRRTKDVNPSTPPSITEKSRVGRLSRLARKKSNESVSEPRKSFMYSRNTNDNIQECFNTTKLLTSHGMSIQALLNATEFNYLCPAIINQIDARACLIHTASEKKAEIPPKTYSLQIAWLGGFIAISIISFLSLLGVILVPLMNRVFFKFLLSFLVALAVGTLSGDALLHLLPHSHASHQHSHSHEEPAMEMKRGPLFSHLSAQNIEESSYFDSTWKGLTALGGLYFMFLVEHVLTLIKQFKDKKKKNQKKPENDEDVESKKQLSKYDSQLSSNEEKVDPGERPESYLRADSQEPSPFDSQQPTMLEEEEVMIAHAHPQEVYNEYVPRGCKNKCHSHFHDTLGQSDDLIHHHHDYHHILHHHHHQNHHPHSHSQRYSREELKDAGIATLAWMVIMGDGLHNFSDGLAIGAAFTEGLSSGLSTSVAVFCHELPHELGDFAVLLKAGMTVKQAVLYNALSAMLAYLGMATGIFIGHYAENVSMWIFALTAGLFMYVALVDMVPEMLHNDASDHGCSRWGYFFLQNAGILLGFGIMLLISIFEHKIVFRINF
As to the kind of experiment: FACS, HEK293/Mouse_LIV-1 cells.

In the next test the target is T2, rat LIV-1 (rat) (UniProt Q4V887).
T2 sequence (looked up): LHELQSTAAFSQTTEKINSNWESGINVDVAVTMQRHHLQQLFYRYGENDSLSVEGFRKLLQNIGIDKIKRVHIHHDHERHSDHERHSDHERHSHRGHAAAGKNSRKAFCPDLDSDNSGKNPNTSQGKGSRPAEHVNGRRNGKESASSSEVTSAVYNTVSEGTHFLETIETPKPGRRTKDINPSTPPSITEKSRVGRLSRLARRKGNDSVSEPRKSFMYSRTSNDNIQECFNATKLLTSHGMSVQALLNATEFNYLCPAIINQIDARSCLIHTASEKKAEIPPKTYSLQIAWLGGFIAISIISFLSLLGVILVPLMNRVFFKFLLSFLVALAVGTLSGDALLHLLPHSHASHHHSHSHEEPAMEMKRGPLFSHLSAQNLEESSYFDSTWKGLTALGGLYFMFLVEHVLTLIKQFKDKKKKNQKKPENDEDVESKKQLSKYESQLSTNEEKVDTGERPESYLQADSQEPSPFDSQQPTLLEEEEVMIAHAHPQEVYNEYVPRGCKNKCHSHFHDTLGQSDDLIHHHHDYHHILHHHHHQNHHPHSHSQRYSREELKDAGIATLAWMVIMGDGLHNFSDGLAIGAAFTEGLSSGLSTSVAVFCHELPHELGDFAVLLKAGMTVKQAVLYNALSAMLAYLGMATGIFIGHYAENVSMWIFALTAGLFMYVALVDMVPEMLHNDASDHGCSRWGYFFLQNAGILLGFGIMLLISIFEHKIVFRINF
In words: FACS, HEK293/Rat_LIV-1 cells.

For hIgG1 Isotype (antibody), the values for the Top (MFI) with mouse LIV-1 (mouse) and in the test with rat LIV-1 (rat) were 114 MFI and 119 MFI, respectively.

(Values after patent publication US20240325555A1.)
